Test results: patent publication US9624471B2, “Methods for maturing cardiomyocytes and uses thereof” (UNIVERSITY OF WASHINGTON THROUGH ITS CENTER FOR …, priority 2013, dated 2017)

Columns and labels:
hESCs-CMs = experiment: Contractile force and beat frequency measurement on arrays of microposts; format: cell-based, human; conditions: let-7 OE CMs; for beat frequency: EV control 1.57±0.1 hz; for average twitch force: EV control 7.77±0.7 nN/cell, P<0.001
Method: Arrays of silicone microposts were fabricated out of polydimethylsiloxane (PDMS) via a previously-described double-casting process using soft lithography from a SU8 master^19. Each micropost within the arrays used for these studies was 6.45 μm in height, 2.3 μm in diameter, and the center to center spacing between adjacent posts was 6 μm. Prior to cell seeding, the tips of these microposts were stamped with 50 μg/ml of mouse laminin (LIFE TECHNOLOGIES™), and the remaining surfaces of the array were fluorescently stained with BSA 594 and blocked with 0.2% Pluronic F-127 (in PBS)^20. CMs that were 1 week post pLKO-let-7 OE or EV lentiviral transfection, were seeded onto these arrays at a density of around 800,000 cells per substrate.
One week following cell seeding, muscle twitches from individual hESCs-CMs were recorded with high-speed video microscopy within a live cell chamber at 37° C. These images were acquired using a NIKON™ Ti-E upright microscope with a 60× water-immersion objective and a Hammamatsu ORCA™ camera. A custom MATLAB™ code was then used to compare each time frame of this video, to a reference fluorescent image, taken at the base plane of the posts. The twitch force at each post was subsequently calculated by multiplying the deflection of the post by the post's bending stiffness (38 nN/μm). The total twitch force produced by the cell was then determined by adding together the twitch force measured at each post beneath the cell. The average spontaneous beating frequency of the cells was determined by locating the time at which each beat reaches a maximum in the total twitch force (using the same MATLAB™ code), calculating the frequency between each sequential beat: 1/(time at which second beat occurs—time at which first beat occurs), and then averaging these frequencies across all of the measured twitch events.

let-7g OE CMs = experiment: Whole genome transcriptome profiling (ILLUMINA RNA sequencing) of let-7g OE CMs vs. EV control CMs; format: cell-based, human
From the text: To further understand the effects of let-7 OE during cardiomyocyte maturation at a molecular level, the inventors carried out whole genome transcriptome profiling of let-7g OE CMs and corresponding EV control CMs using an ILLUMINA™ RNA sequencing platform. […] Using expression values for the genes that belonged to the 12 pathways (FIG. 1E), the inventors carried out a 2D-PCA comparing let-7g OE CMs and EV control CMs with H7-CMs at day 20 and 1 yr, IMR90iPSC-CMs at 1 yr and 3 month old HFA and HFV samples. […] Further evidence of let-7g directed maturation was observed from known isoform changes accompanying cardiomyocyte maturation, such as shifts in myosin heavy chain (MYH6/MYH7)^29 (FIG. 13). […] Focusing on the 34 differentially spliced genes in common among H7-CM-1yr, let-7 OE and fetal samples (FIG. 4C), the inventors identified the single transcript of each showing the greatest absolute change in proportion between H7-CM day 20 and the above three samples (data not shown). […] The same pattern emerges from analysis of the relative expression levels of all 377 isoforms (data not shown) of these 34 genes again showing that the developmental chronology of the samples is well captured by principal component 1. In short, there are concerted and dynamic changes in splicing during maturation. The fact that both differential splicing and differential expression analyses cluster let-7 OE CMs with H71yr-CM and fetal samples, clearly strengthens the finding that let-7 is critical for maturation.
Total RNAs for HFA and HFV samples were extracted using RNAeasy mini kit (QIAGEN™)^7. Total RNAs for all other samples were extracted with MIRNEASY™ mini kit (QIAGEN™) and were further DNAse treated with DNA-free kit (AMBION™). RNA and Small RNA libraries were prepared independently using TRUSEQ™ library preparation kits (ILLUMINA™) following the manufacturer's protocols. […] Sequence data for miRNAs were analyzed using miRDeep2™ software^8. […] For mRNA sequencing analysis, mRNA reads from samples were mapped to hg19 reference genome using STAR version 2.3.010. BAM files produced by STAR were analyzed with Cufflinks version 2.1.1_11 run in de novo mode. […]
Gene and transcript abundance was estimated using Markov chain Monte Carlo to sample from a hierarchical Bayesian model. […] Under this model, estimates from transcripts with very low data are effectively shrunk towards each other to avoid spuriously highfold-change estimates that can occur when using simple read or fragment count estimates. Expression estimates, measured in transcripts per million (TPM), and adjusted using upper quantile normalization^12, were generated for the Ensembl 74 gene annotation database^13.
Separately, statistical significance of differential expression at the gene level was analyzed using DESeq^14. […]

HECT293FT cells = experiment: Lipofectamine transient transfection of plko-let-7g and plko-let-7g-E plasmids, mature let-7g and target expression after 24 hrs; format: cell-based; conditions: 24 hrs after transfection
Method: FIGS. 20A-20B Modified let-7g (let-7g-E) is more efficient in generating mature let-7g in HECT293FT cells. Let-7g and a modified version of let-7g (plko-let-7g-E) were induced in hect 293 FT cells by introducing plko-let-7g and plko-let-7g-E plasmids with lipofectamine transient transfection assay. 24 hrs after transfection, cells were tested for mature let-7g expression. […] (FIG. 20B) Targets of let-7 are repressed when we over-express let-7g-E similar to that seen during over-expression of let-7g.

B1: let-7i: human let-7 family miRNA, SEQ ID NO: 10, overexpressed from pLKO lentiviral pri-miR-let-7i construct (nucleic acid, listed as Homo sapiens)
chain: CUGGCUGAGGUAGUAGUUUGUGCUGUUGGUCGGGUUGUGACAUUGCCCGCUGUGGAGAUAACUGCGCAAGCUACUGCCUUGCUA
For B1, the beat frequency (hESCs-CMs) was 1.05±0.1 hz and the average twitch force (hESCs-CMs) was 11.32±0.86 nN/cell.

B2: let-7g: human let-7 family miRNA, SEQ ID NO: 9, overexpressed from pLKO lentiviral pri-miR-let-7g construct (nucleic acid, listed as Homo sapiens)
chain: AGGCUGAGGUAGUAGUUUGUACAGUUUGAGGGUCUAUGAUACCACCCGGUACAGGAGAUAACUGUACAGGCCACUGCCUUGCCA
In the case of B2, the beat frequency (hESCs-CMs) is reported as 0.92±0.094 hz, the average twitch force (hESCs-CMs) is reported as 9.28±0.7 nN/cell and the “maturation markers RYR2, MYH7, KCNJ2 expression” value (let-7g OE CMs; RNA sequencing, compared to EV control) is reported as “increased expression”. For the same molecule, the “FA metabolism (gene expression, density plots)” value (let-7g OE CMs; in comparison to EV control) was “significantly up-regulated”, the “PI3/AKT/Insulin signaling (gene expression, density plots)” value (let-7g OE CMs; in comparison to EV control) was “significantly down-regulated” and the “position in dimension 1 of 2D-PCA (genes of 12 pathways)” value (let-7g OE CMs; vs. H7-CMs day 20 and 1 yr, EV control) was “closer to 1 yr than the EV and day 20 CMs”. The “Targets of let-7 expression” value (HECT293FT cells) was “repressed”.
